Consider 27 molecules from patent publication US20240002497A1 (Merck Sharp & Dohme, published 2024).

The labels stand for the following.
B1: F010302383 (VHH)
VHH: EVQLVESGGGVVQPGGSLRLSCAASGPVFNINRMAWYRQAPGKQRELVAYVTPTGDISYADSVKGRFTISRGGSKRVYLQMNSLRPEDTALYYCRALLQPSSYSGTRTYWGQGTLVTVSS
B2: F010300880 (VHH)
VHH: EVQLVESGGGLVQPGGSLRLSCAASGPVFNINRMAWYRRAPGKQRELVASSTPGGDTNYADSVKGRFTISRDNAKRVYLQMNSLTPEDTAVYYCRWLLQPSIYDISRTYWGQGTLVTVSS
B3: F010300990 (VHH)
VHH: B2 VHH with S50Y, D56S, R95N, W96A, T108I
B4: F010300900 (VHH)
VHH: B2 VHH with T108I
B5: F010300631 (VHH)
VHH: B2 VHH with R33S, S50Y, D56S, W96A
B6: F010300477 (VHH)
VHH: B2 VHH with P27S, V28I, R33S, P53N, D56S, R95N
B7: F010300948 (VHH)
VHH: B2 VHH with D56S, T108I
B8: F010300684 (VHH)
VHH: B2 VHH with I31W, R33S, D56S, W96A, T108I
B9: F010301657 (VHH)
VHH: EVQLVESGGGLVQPGGSLRLSCAASVRPFSTSAMGWFRQAPEKEREAVAGILWNGIVTYYADSVKGRFTISRDNAKNEVYLQMNKLKPEDTAVYYCALDRAYQGRSFSAKEYEYWGQGTLVTVSS
B10: F010301665 (VHH)
VHH: B9 VHH with G50A, Q103G, S124A, S125A
B11: F010301662 (VHH)
VHH: B9 VHH with K110Y
B12: F010301664 (VHH)
VHH: B9 VHH with A101D
B13: F010301663 (VHH)
VHH: B9 VHH with Q103G
B14: F010301666 (VHH)
VHH: B9 VHH with G50A, A101D
B15: F010301659 (VHH)
VHH: B9 VHH with G50A, Q103G, K110Y
B16: F010301658 (VHH)
VHH: B9 VHH with G50A
B17: F010301661 (VHH)
VHH: B9 VHH with G50A, A101D, Q103G
B18: F010301643 (VHH)
VHH: EVQLVESGGGVVQPGGSLRLSCAASGRILRIGYMRWHRQGAGKQREFVARITDDSATDYADSVKGRFTISRDNAKNTVYLQMNSLRPEDTALYYCEALVTASVRGGSIHSGTYWGQGTLVTVSS
notes: also called F0103387G05(L11V, A14P, D23A, N82bS, N83R, V89L, R105Q)
B19: F010301649 (VHH)
VHH: B18 VHH with A23D
notes: also called F0103387G05(L11V, A14P, N82bS, N83R, V89L, R105Q)
B20: F010301646 (VHH)
VHH: B18 VHH with A23D, A41P
notes: also called F0103387G05(L11V, A14P, A41P, N82bS, N83R, V89L, R105Q)
B21: F010301644 (VHH)
VHH: B18 VHH with A23D, H37Y
notes: also called F0103387G05(L11V, A14P, H37Y, N82bS, N83R, V89L, R105Q)
B22: F010301645 (VHH)
VHH: B18 VHH with A23D, G40A
notes: also called F0103387G05(L11V, A14P, G40A, N82bS, N83R, V89L, R105Q)
B23: F010301652 (VHH)
VHH: B2 VHH with L11V, P27S, V28I, S50Y, P53N, R76N, T85R, V91L, W96A
notes: also called F0103275B05(L11V, S33R, S50Y, S56D, R76N, T83R, V89L, N93R)
B24: F010301653 (VHH)
VHH: B2 VHH with L11V, P27S, V28I, S50Y, P53N, T85R, V91L, W96A
notes: also called F0103275B05(L11V, S33R, S50Y, S56D, T83R, V89L, N93R)
B25: F010301655 (VHH)
VHH: B2 VHH with L11V, P27S, V28I, R39Q, S50Y, P53N, R76N, T85R, V91L, W96A
notes: also called F0103275B05(L11V, S33R, R39Q, S50Y, S56D, R76N, T83R, V89L, N93R)
B26: F010301654 (VHH)
VHH: B2 VHH with L11V, P27S, V28I, R39Q, S50Y, P53N, T85R, V91L, W96A
notes: also called F0103275B05(L11V, S33R, R39Q, S50Y, S56D, T83R, V89L, N93R)
B27: F010301640 (VHH)
VHH: EVQLVESGGGVVQPGGSLRLSCAASGSIFNINSMAWYRRAPGKQRELVASSTNGGSTNYADSVKGRFTISRDNAKRTVYLQMNSLRPEDTALYYCNALLQPSIYDISRTYWGQGTLVTVSS
notes: also called F0103275B05(R76_V78insT)(L11V, T83R, V89L)

Substitutions are numbered along the chain they refer to. In names and notes the source's numbering stands.

For one assay, the target named is rhNav1.7α + β1-β2-β3 (rhesus monkey). The assay can be described thus: cell-based or functional assay.
B1: the “Qpatch IC50” value was 3 nM.

Consider B2, for which the “Qpatch IC50” value stood at 122 nM.

Consider B3, for which the “Qpatch IC50” value was determined as 101 nM.

Turning to B4, the “Qpatch IC50” value amounted to 36 nM.

As to B5, the “Qpatch IC50” value turned out to be 173 nM.

On to B6, for which the “Qpatch IC50” value worked out at 1190 nM.

Take B7: the “Qpatch IC50” value worked out at 58 nM.

As to B8, the “Qpatch IC50” value came to 212 nM.

Another assay concerns the target huNav1.7α + β1 (human). The assay can be described thus: cell-based or functional assay.
With B1, the “Qpatch IC50” value was determined as 22 nM.

Consider B2, for which the “Qpatch IC50” value worked out at 27 nM.

For B3, the “Qpatch IC50” value stood at 249 nM.

As to B4, the “Qpatch IC50” value stood at 196 nM.

As for B5, the “Qpatch IC50” value amounted to 73 nM.

As for B6, the “Qpatch IC50” value is 96 nM.

In the case of B7, the “Qpatch IC50” value was 315 nM.

As for B8, the “Qpatch IC50” value stood at 202 nM.

The target of a further assay is T1, huNav1.7α (HEKa) (human, UniProt Q15858 1-1988).
T1 construct: also called HEKa huNav1.7α
The assay can be described thus: binding FACS, HEKa cells. The procedure: Binding of the ISVDs to cell-expressed Nav1.7α was detected via murine anti-Flag (Sigma, catalog #F1804). Briefly, cells were resuspended in FACS buffer (PBS, 10% FBS, NaN₃) and transferred to a 96-well V-bottom plate at 1×10^5 cells/well. Purified FLAG3-tagged ISVD was diluted in FACS buffer and added to the cells for 30 minutes at 4° C. […] Prior to the read-out, the samples were resuspended in 1 μg/mL propidium iodide (Sigma, catalog #P4170) to exclude dead cells. Between each step, the cells were centrifuged for 5 minutes at 200 grams and washed with 100 μL/well FACS buffer.
As to B9, the 50% effective concentration (EC50) (in general, the midpoint of the concentration-response curve) was 20 nM.

Take B10: the midpoint of the response, the EC50, lay at 8.8 nM.

B11 showed an EC50 of 19 nM.

Take B12: it took 13 nM to reach a half-maximal effect (EC50).

Molecule B13 had an EC50 of 13 nM.

The molecule B14 had a 50% effective concentration (EC50) of 10 nM.

Turning to B15, the concentration giving a half-maximal response (EC50) is 11 nM.

As to B16, the response was half-maximal at 23 nM (EC50).

B17 displayed a 50% effective concentration (EC50) of 16 nM.

In another assay the target is T2, huNav1.7α (human Nav1.7 alpha subunit, expressed without β subunits) (human, UniProt Q15858 1-1988).
T2 construct: also called HEK293 human Nav1.7α; HEKa Nav1.7α
In words: binding FACS, HEKa cells.
In turn, B18 showed a Bmax of 100% and a half-maximal effective concentration (EC50) of 4.1 nM.

In turn, B19 returned a Bmax of 100% and an EC50 of 5.3 nM.

Molecule B20 displayed a Bmax of 100% and an EC50 of 4.4 nM.

Regarding B21, the Bmax came to 100% and a half-maximal response (EC50) required 5.7 nM.

The molecule B22 had a Bmax of 100% and an EC50 of 4.7 nM.

Another assay deals with T3, huNav1.7α + β1 (HEKa/β1) (human, UniProt Q15858 1-1988; Q07699 19-218).
T3 construct: also called HEKa/β1 huNav1.7α
In words: binding FACS, HEKa/β1 cells. Summed up:
(§1)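 FLAG3-tagged ISVD, 30 min, 4° C, FACS buffer (PBS/10% FBS/NaN₃); 1×10^5 cells/well; detection murine anti-Flag; PI 1 μg/mL live gate; washes between steps.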
With B9, the concentration for a half-maximal effect (EC50) is 16 nM.

Consider B10, for which the half-maximal effective concentration (EC50) came out at 11 nM.

Regarding B11, the concentration for a half-maximal effect (EC50) came out at 17 nM.

For B12, the half-maximal effective concentration (EC50) is 18 nM.

B13: the EC50 was determined as 14 nM.

On to B14, for which the EC50 is 14 nM.

As for B15, the EC50 worked out at 12 nM.

In the case of B16, the EC50 was determined as 20 nM.

In the case of B17, the concentration for a half-maximal effect (EC50) was found to be 18 nM.

For another assay, the target named is T4, huNav1.7α + β1 (human Nav1.7α co-expressed with Navβ1) (human, UniProt Q15858 1-1988; Q07699 19-218).
T4 construct: also called HEK293 human Nav1.7α + β1; HEKa/β1 Nav1.7α
In words: binding FACS, HEKa/β1 cells.
As to B18, the EC50 was determined as 3.4 nM.

Consider B19, for which the concentration for a half-maximal effect (EC50) is 4.1 nM.

In the case of B20, the EC50 came to 4.1 nM.

For the molecule B21, the half-maximal effective concentration (EC50) was found to be 5 nM.

For B22, the 50% effective concentration (EC50) amounted to 4.2 nM.

For the next assay, the target named is T5, huNav1.7α + β1-β2-β3 (human Nav1.7α co-expressed with human Navβ1, Navβ2 and Navβ3 on cells) (human).
T5 construct: also called huNav1.7-beta1-beta2-beta3; CHO FlpIn huNav1.7α + β1-β2-β3
The assay can be described thus: binding FACS, CHO FlpIn cells. The method, boiled down: as §1
For B23, the EC50 stood at 61 nM.

Regarding B24, the EC50 amounted to 36 nM.

As to B25, the EC50 is 46 nM.

For the molecule B26, the EC50 came out at 32 nM.

The target in another assay is T6, rhNav1.7α + β1-β2-β3 (rhesus Nav1.7α co-expressed with Navβ1, Navβ2 and Navβ3 on cells) (rhesus monkey (α subunit); β subunits …).
T6 construct: also called rhNav1.7-beta1-beta2-beta3; CHO FlpIn rhNav1.7α + β1-β2-β3
The assay can be described thus: binding FACS, CHO FlpIn cells. The method, boiled down:
as §1
B23: the EC50 was found to be 24 nM.

In the case of B24, the EC50 worked out at 16 nM.

On to B25, for which the EC50 turned out to be 26 nM.

Take B26: the 50% effective concentration (EC50) was 18 nM.

Another assay concerns the target T7, huNav157 chimera 14 + β1-β2-β3 (human).
T7 construct: Chimera of huNav1.7α (extracellular loops and transmembrane helices) and huNav1.5α (intracellular loops); also called Nav157ch14-β1-β2-β3; huNav157 chimera 14-beta1-beta2-beta3
In words: binding FACS, HEK FlpIn cells.
As to B18, the EC50 turned out to be 3.6 nM.

With B19, the concentration for a half-maximal effect (EC50) was 4.2 nM.

Regarding B20, the EC50 came to 4.2 nM.

Turning to B21, the EC50 came out at 4.9 nM.

In the case of B22, the EC50 stood at 4.6 nM.

In the next assay the target is T8, huNav157 chimera 14 (human).
T8 construct: Chimera without β subunits; also called Nav157ch14
The assay can be described thus: binding FACS, HEK FlpIn cells.
On to B18, for which the Bmax was determined as 100% and the half-maximal effective concentration (EC50) came out at 3.7 nM.

Turning to B19, the Bmax worked out at 100% and the response was half-maximal at 3.4 nM (EC50).

For B20, the Bmax was 100% and a half-maximal effect (EC50) was put at 3.1 nM.

The molecule B21 returned a Bmax of 100% and an EC50 of 4.4 nM.

Regarding B22, the Bmax turned out to be 100% and the midpoint of the response, the EC50, lay at 3.9 nM.

A further assay deals with T9, huNav1.7α on HEK cells (without β subunits) (human, UniProt Q15858 1-1988).
T9 construct: also called HEKa huNav1.7α
In words: binding FACS, HEK cells (HEKa).
The molecule B23 gave an EC50 of 24 nM.

On to B24, for which a half-maximal response (EC50) required 15 nM.

Consider B25, for which the EC50 was found to be 19 nM.

Take B26: a half-maximal response (EC50) required 18 nM.

For the next assay, the target named is huNav1.7α + β1 on HEK cells (human, UniProt Q15858 1-1988; Q07699 19-218). In words: binding FACS, HEK cells (HEKa/b1).
As for B27, the EC50 turned out to be 65 nM.

With B23, the EC50 came to 38 nM.

With B24, the EC50 is 29 nM.

On to B25, for which the EC50 stood at 28 nM.

B26: the EC50 came out at 25 nM.
